US20220332804A1 (CSL INNOVATION, published 2022)

Key:
Assay in all cases: SPR, antibody captured, C2 as analyte;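 further: biacore at 37 °C, anti-C2 mAbs held by immobilised goat anti-human IgG, C2 alanine or serine mutants injected, double-referenced sensorgrams fitted to a 1:1 kinetic or steady-state model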
human C2 L439A = molecular target: T1, human C2 L439A (human, UniProt P06681 21-752)
T1 sequence: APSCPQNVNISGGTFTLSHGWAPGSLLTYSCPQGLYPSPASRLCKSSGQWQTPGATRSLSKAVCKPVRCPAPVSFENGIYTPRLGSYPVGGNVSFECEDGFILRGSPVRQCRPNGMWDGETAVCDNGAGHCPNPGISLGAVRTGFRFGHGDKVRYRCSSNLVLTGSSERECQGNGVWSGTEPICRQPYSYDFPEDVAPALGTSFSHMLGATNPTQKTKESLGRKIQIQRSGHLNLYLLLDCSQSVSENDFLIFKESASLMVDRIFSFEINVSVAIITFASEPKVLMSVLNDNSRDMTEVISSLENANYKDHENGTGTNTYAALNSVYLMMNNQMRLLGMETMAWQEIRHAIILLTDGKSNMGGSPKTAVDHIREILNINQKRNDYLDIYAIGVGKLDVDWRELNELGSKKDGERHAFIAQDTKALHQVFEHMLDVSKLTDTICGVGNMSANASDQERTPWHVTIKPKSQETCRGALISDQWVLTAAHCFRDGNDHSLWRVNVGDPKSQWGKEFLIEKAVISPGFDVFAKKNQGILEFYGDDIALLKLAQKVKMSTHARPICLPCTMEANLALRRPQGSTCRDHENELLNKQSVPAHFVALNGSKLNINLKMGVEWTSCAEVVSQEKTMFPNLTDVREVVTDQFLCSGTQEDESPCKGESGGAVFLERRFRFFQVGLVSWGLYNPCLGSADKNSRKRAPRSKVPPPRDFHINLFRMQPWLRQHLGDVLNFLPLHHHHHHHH

human C2 D404A = molecular target: T2, human C2 D404A (human, UniProt P06681 21-752)
T2 sequence: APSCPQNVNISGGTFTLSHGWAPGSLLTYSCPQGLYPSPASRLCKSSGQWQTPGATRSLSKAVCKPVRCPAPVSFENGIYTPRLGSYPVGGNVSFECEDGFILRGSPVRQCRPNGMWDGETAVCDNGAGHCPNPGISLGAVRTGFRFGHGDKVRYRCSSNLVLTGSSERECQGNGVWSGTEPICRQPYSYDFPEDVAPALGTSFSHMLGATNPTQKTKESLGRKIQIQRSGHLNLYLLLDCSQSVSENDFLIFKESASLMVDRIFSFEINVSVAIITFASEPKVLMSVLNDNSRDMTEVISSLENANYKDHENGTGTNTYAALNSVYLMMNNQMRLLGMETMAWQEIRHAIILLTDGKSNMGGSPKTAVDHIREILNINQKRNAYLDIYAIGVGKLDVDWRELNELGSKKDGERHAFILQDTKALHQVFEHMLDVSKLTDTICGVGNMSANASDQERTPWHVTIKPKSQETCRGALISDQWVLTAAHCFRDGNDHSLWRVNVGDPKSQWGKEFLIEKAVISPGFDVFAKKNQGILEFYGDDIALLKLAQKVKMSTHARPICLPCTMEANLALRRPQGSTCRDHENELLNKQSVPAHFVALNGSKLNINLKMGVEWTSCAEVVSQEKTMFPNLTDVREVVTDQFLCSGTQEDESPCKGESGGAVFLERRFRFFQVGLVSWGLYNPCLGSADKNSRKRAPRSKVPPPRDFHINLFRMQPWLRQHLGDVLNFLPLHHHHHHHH

human C2 F270A = molecular target: T3, human C2 F270A (human, UniProt P06681 21-752)
T3 sequence: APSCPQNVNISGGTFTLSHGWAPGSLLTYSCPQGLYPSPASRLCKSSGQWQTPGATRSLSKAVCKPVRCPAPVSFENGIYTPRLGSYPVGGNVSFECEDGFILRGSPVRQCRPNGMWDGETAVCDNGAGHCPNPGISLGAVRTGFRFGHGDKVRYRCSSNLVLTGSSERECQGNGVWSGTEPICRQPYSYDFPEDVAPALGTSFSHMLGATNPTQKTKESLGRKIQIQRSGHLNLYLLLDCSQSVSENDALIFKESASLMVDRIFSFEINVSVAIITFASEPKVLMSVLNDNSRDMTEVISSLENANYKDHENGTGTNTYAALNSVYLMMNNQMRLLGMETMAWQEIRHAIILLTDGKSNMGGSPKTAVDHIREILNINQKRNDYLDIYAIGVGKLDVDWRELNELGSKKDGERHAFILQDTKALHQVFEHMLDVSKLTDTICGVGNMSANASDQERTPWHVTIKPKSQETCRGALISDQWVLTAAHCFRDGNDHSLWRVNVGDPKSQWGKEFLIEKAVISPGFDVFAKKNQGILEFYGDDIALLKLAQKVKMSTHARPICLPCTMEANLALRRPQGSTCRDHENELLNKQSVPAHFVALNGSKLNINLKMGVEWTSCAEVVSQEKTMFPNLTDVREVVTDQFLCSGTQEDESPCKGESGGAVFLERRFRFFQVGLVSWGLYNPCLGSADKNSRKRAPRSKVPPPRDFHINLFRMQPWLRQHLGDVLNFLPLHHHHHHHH

human C2 N327A = molecular target: T4, human C2 N327A (human, UniProt P06681 21-752)
T4 sequence: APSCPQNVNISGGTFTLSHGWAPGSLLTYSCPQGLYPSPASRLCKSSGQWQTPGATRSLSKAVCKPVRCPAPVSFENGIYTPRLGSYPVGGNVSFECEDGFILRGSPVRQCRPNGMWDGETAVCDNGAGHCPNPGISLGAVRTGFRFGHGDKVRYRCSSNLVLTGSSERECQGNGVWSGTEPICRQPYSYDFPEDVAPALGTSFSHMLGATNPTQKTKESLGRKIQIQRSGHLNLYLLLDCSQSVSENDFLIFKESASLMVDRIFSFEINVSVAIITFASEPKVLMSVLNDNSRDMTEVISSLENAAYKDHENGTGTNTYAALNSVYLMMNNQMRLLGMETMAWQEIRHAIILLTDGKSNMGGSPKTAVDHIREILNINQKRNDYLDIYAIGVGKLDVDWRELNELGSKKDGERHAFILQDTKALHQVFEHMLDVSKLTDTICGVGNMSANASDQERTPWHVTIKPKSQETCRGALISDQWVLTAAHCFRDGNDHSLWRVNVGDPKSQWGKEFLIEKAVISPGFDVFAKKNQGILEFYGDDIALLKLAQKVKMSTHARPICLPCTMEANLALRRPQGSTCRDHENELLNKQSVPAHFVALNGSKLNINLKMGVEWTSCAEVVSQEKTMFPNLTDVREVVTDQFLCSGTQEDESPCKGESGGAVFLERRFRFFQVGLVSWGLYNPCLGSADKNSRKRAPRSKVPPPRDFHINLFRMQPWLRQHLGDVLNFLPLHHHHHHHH

B1: RF16-242 (antibody, human IgG4 S228P, lambda, V domains shown)
VH: EVQLLQSGAEVKKPGESLKISCKGSGYSFTSYWIGWVRQMPGKGLEWMGIIYPGDSDTRYSPSFQGQVTISADKSISTAYLQWSSLKASDTAMYYCARRGHYGDYFDYWGQGTLVTVSS
VL: SYELTQPPSVSVSPGQTARITCSGDALPKKYAYWYHQKSGQAPVLVIYEDRRRPSEIPERFSGSSSGTMATLTITGAQVEDEGVYFCYSRDRAGNQRVFGGGTQLTVLG
notes: pH-dependent anti-C2 antibody from a phage display library
- Kd (human C2 L439A): 170 nM
- Kd (human C2 D404A): 16.4 nM
- Kd (human C2 F270A): 104 nM
- Kd (human C2 N327A): 37.5 nM
